Measured values published in the DeepSol protein solubility set.

Experiment: soluble on expression in E. coli; label from the status in PepcDB or PDB records

Sequence	soluble on expression in E. coli
MDFTQQLQACVTQANQALSRFIAPLPFQNTPVVEAMQYGALLGGKRLRPFLVYATGQMFGVSTATLDAPAAAVECIHAYSLIHDDLPAMDDDDLRRGLPTCHIKFGEANAILAGDALQTLAFAIISDAPMPEVADRDRIAMIAELANASGIAGMCGGQALDLAAEGQRITLDALERIHRHKTGALIRAAVRLGALSAGDKGRNTLPILDRYAESIGLAFQVQDDILDVVGDTATLGKRQGADQQLGKSTYPALLGLEQARNKARDLIEDARQSLHQLAAQSLDTSALEALANYIIQRDK	not soluble
MEKKYRKEPVEIPPEIAETAAGGKVPETDVTEQYPQMEEMNGTEAAGEMPQIGPMYPIPQVPAQPTEPAQQMGQMPCMQPIPQMVPVVCCPFLLQMHCPMMPMDYSSMSHPTYQTAPQAMPQTMQAVPQPATPAQYAPGPCGSPYYPQHSGSPCGYGSDMYDQNYNSSMYNPSMYNPMRPGYY	not soluble
MRSATDLLDELNAVDESARIEAKRASDMGKSVMETVIAFANEPGLDGGYLLLGVDWAINDKGDTVYRPVGLPDPDKVQRDLASQCASMLNVALRPEMQLEQVGGKTLLVVYVPEADVTHKPIYKKATGLPGGAYRRIGSSDQRCVDEDLWVLRGESQPLHGPDSSILSDARADDFDPTAIAAYRRERARINPQAEELDYGDEDMLEALGALRRVDGVLQPTLAGIVLFGKPLALRRLLPMVRIDYIRVPGNEWVEDPENRFQSIDIRKPLMLALPLAEASIIDELPKGFRLPEGQLQSVQEPILPRKVIREALANAAMHRNYTLHSPTQIIRYSNRIEIRNVGYSLKEPAQLGLPGSRLRNPAIAAVLHDLHLAEAKGTGIRAMRRLAADAGLPLPEFHSDRQANEFKLTLFLHNLLTEEDHTWLRNYAGSTLGPDEAKVLIYVRATGAVDNTACRDFCGSDTLAASMVLRRLRDRGLLEKRGAGSRTYYTLAGNEPRPTLESAQSELPLDVPADTPPVGQPQPAEAVAGQQACNPQLATLPPELATLLATLQGRISSEALRDGIRRLCQWAPQSGDQLATLLGKDRDYLRNKHLIPMVRDGQLRFRYPESAKHPHQAYVAPEDKRNDLEHHHHHH	soluble
MAHHHHHHMKQVKAAFEANKRVYESVLLTFKGVDGYDVYNCSVPFSYKGKTHIYGRVEKRDIWAASHVRLFEETGKDEFTAVPELSWELEDPYIAKINNEMIFGGTRVRKNGNAILSYYGYFYRGTPDELTYFTRGPGCMKDIRVLQLQDGRLGVFSRPRVGRKASIGFVILNSIDELGAEVIAKAPPLDILSENAWGGVNQAYLLSSGKVGCIGHYSYEDTNEKQQPQSVYVNYAFVLDPQSRAITGAKIIGTKSCYPPCEPKVPLLADCVFASGIVMRSDGKVDLYSGVGDSHEGRITIDYPFKGHGTIIGDLHFPMASSL	soluble
MTERFFAPCPRGLETVLAAELERLDATSIQASPGGVGFHGNWQTCYRANLESRIASRILWQIAKDQYRSEADIYDLTHSLPWQDWFEPRLSIKVNLAAIKCPLRSLDFVTLRIKDAVCDKFRAIHGKRPDIDTVAPDMRIHGFLNAQEFTLYLDTSGEALFKRGLRQTQGEAPLRENLAAGILALTGWQPGTPLLDPMCGSGTLLLEAAQIACRIAPGSGRQFAFEQLKLFDARSWKKLKQTATERQHERTFQSIYGSDLYGSALAHTRNNLAAAGLAECVTLKQANVLEISAPAETGILVSNPPYGVRIGDHQMLAEFYPRLGDVLKQRFSGWRAFLLTADPLLAKSIRLTPSRRTPLFNGALECRLLEYRLVAGSMRREKQPSSESSTNQPIT	not soluble
MYPDDSLTLHTDLYQINMMQVYFDQGIHNKKAVFEVYFRQQPFKNGYAVFAGLERIVNYLEDLRFSDSDIAYLESLGYHGAFLDYLRNFKLELTVRSAQEGDLVFANEPIVQVEGPLAQCQLVETALLNIVNYQTLVATKAARIRSVIEDEPLMEFGTRRAQEMDAAIWGTRAAVIGGANGTSNVRAGKLFDIPVLGTHAHALVQVYGNDYEAFKAYAATHKNCVFLVDTYDTLRIGVPAAIQVARELGDQINFMGVRIDSGDIAYISKKVRQQLDEAGFTEAKIYASNDLDENTILNLKMQKAKIDVWGVGTKLITAYDQPALGAVYKIVAIEDETGQMRNTIKLSNNAEKVSTPGKKQVWRITSREKGKSEGDYITYDGVDISDMTEIKMFHPTYTYIKKTVRNFDAVPLLVDIFKEGILVYNLPSLTDIQDYARKEFDKLWDEYKRVLNPQHYPVDLARDVWQDKMDLIDKMRKEALGEGEEE	not soluble
MKIKVISRNPNTYQRETTDKRNKIVRNFNTPADPFRSQVEYTRALNATKLERVFAKPFVASLDGHVDGVQVLAKHPNRPSTVFSGARDGQVKIWNLASRECQATLDAHRGLVNDISIDNNNGENFVTVGQDNQLKYWKIEGQQKTPAHSIAMDGIVYGVSHLSFSSDFVTCGEDISVWKPYRETPLRSYNLGTDTIHTCRANPVEENVIVGARSDRSIYVLDTRQDVPLKKVTMKMRPNKISWNPMEAYNFTVASEDYSLYTFDMRYMEHPVQSHQGFTSAVLDVDYSPTGQEFVAAGYDRSIRLFKARDMTSRDVYYTKRMASVLSVLWSADSKFVLSGSNEMNIRVWKANAAEKLGPLTKREKQAFAYNEKLRDTYKNHPEVRRIAKHRNVPRHIFTAAKEHKLIRDARGRRDFRRAKAAGLDEEESYLPQTQKIMVGDAEM	not soluble
MPTASPIYDVVVVGAGISGLIATQLLDRAGLNIKCFEACSRVGGRAVSVQQSDLFLDLGATWFWLNEPLVQQLVNNLGLGTFPQAIEGDALFETLVDAPSRLRGNPIDAASGRFQAGASSLALGLAAQLKPGVLELGDPVHSLSEEDGEIVVKSSKQIVRAKHVIIAVPPALAAELIGFTLDLPADVRKAAHPQHIAVMNWAKEKYTLPTQAASAGGFGHELFQQPLGHGRIHWASTEVATEFGGHLEGAVRAGIQAALQTGFNLKSLEHHHHHH	soluble
RTNQAGLELIGNAEGCRRDPYMCPAGVWTDGIGNTHGVTPGVRKTDQQIAADWEKNILIAERCINQHFRGKDMPDNAFSAMTSAAFNMGCNSLRTYYSKARGMRVETSIHKWAQKGEWVNMCNHLPDFVNSNGVPLRGLKIRREKERQLCLTGLVNEHHHHHH	soluble
MTAFAAASPRAAVRTGFDGLAISVATRAMMKNLDQNFDAILITGPTASGKSALALRLARERNGVVINADSMQVYDTLRVLTARPSDHEMEGVPHRLYGHVPAGSAYSTGEWLRDISGLLSDLRGEGRFPVIVGGTGLYFKALTGGLSDMPAIPDDLREGLRARLIEEGAAKLHAELVSRDPSMAQMLQPGDGQRIVRALEVLEATGKSIRDFQRASGPMIIDPERAQKFIVLPERPVLHDRINRRFEAMMDSGAVEEVQALLALNLAPDATAMKAIGVAQIADMLTGRMGAAEVIEKSAAATRQYAKRQMTWFRNQMGDDWTRIQPAAALEHHHHHH	not soluble
MVTKEVGHDFLARLGKKRLRPGGVEATNWLIEQGQFSQDCHVLEVACNRCTTAIELAKTFGCQIDAVDLNPKVVKEAQERVAVEGLTRHITVSQASALSLPFPDNHFDIVINEAMLTMLNAQAKEKALNEYWRVLKPGGRLLTHDVAYEDPKTRQVLDELRQTIHVNVAPLSLTGWQALYQEHGFSQVTYHHGKMSLMTPRGMIKDEGLMNTLNIMRRGLKKENRQQFLKMRRFFTRTGKNLCYIAVKSVK	not soluble
MSLTKYIFVTGGVVSSIGKGIVAASLGRLLKNRGLKVTIQKFDPYINVDPGTMSPYQHGEVFVTDDGAETDLDLGHYERFIDINLNKYSNVTTGKIYSEVLRKERKGEYLGATVQVIPHITNEIKEKIMRAAKMTDADVIITEVGGTVGDIESLPFLEALRQMKADMGSDNVMYIHTTLIPYLKAAGEMKTKPTQHSVKELRSLGIQPNILVVRTELPVSQNTKNKLAQFCDVNPEAVIESRDVETLYSIPLALQAQNMDQIVCDHLKLDAPAADMTEWRALEEKVLNLKKKTKIALVGKYVELPDAYISVVEALKHAGFDFDSDIEIDWVDSQELTAENVAERIGSADGILVPGGFGDRGIEGKIEAIRFARENDVPFLGICLGMQMACVEFGRNVVGLEDAGSAETNPDVTNNIIDLMADQENIENLGGTLRLGLYPCKLKKGTKTAAAYGNEDVVQERHRHRYEFNNKYRQLFEENGLVFSGVSPDNRLVEIVEIPEKQFFVACQFHPELISRPNRPQRLIKGFVGAALANKEKGHHHHHH	soluble
MLNQSLRPLVNVQVRSVSSKYPRPTPRHFKRRLFEAALKPELPPTVNMCIPPGLIKREHTGKSKEYSDVELALSNLVRDWMVREEFRVMAVCQFLPVPGRTLWFAKNQLRSKNIEFRSYGNKILKKIFDKTPMSSLNTVLVGNNAILLAKDISAIKSILQETDKLNWIEPLVMMADGRIVDMVDARELAKLSSLEDLRAHTVQLLGQQVAQVTISLDTVTRHLPSLLDSHISTNQEAKK	not soluble
MGSDKIHHHHHHMYTFQPGDHLVTNIDPLGLTEHHGLYVGHGHVIHLSKQGIIEEINLQQFAGGHSVRVKKSTLFPHQAIELARSQLGHSPYGVATNNCEHFVNECLEGSSTSNQVSNLTHIALQGSARAGLLGSSASKLATGTVANVVLTSTAIKMTGEYLGLPDNVNTLLGTPGDLVAKPAECLLKGTSQTLGETYTCLRQGEMTGAGIKLVTGSIETGLNTVLTTAEVGINGVKAGAELIADAWHWLRS	not soluble
MAHHHHHHMHLKIVCLSDEVREMYKNHKTHHEGDSGLDLFIVKDEVLKPKSTTFVKLGIKAIALQYKSNYYYKCEKSENKKKDDDKSNIVNTSFLLFPRSSISKTPLRLANSIGLIDAGYRGEIIAALDNTSDQEYHIKKNDKLVQLVSFTGEPLSFELVEELDETSRGEGGFGSTSNNKY	soluble
MPASEDYEGQVPAWCPGCGNFQILSTIKQALAELGIEPREVLLVSGIGQAGKLPHYIKCHTFNGLHGRTLPVATAAKLANHSLHVIAVAGDGDCYAEGGNHFLHAIRRNPNISLFVHNNQIYGLTKGQASPTSAKGTHTPAQPFGYLAHPFNPLALAISQDCSFVARGFAGDQEHLKELIKAAITHRGFSLLDILQPCVTFNKVNTFKWYRERVYRLESDYDPYNQTKAFEKALEWGDKIPNGIFYKSDKETLEEMMPTLHEMPLVRKKFSPEDVKHEIEKFY	not soluble
MIKNGTLKPGDKLLPVHQLAEQFQVGRSAVREALSALRAMGLIEMKQGEGTYVKNFDSSSLTKSLNNRLLMKKEDILNLLEVRKVLEVGAVRVAAAKRTEDNLQNMKHWLDEMAKSIGDEKAGEKADFQFHMGIAESSHNNILLELMNHVSEMIAETIGESRRIILYGEQTTSERLIEEHQVIYDAVLKQDVELAQQAMLDHLTNVEHIVTGKNDINS	not soluble
MGSDKIHHHHHHMSYWIQISNNVRYSNTFEPVCQPGATREERSTTDPGGVGTVPAIHGASNLNIIPIMRARRASITWPSEGLTRVPYALFQDEGVYADEQDAIFRGPNWSYLCLEAEVPNQGDFRSTFVGDAPVVVTRDTDGEIYAFENRCAHRGAMVCLEDQGNARDFSCVYHAWTYSLQGDLVGVAFKDGIDGKGGMKPDFCTGDHGLRKLRVATLHGLVFGSFSDDVPPLDEYLGEEIVERIARVLENRKPVVLGRFTQMLPNNWKLYFENVKDSYHASILHLFFTTFQLNRLSQRGGIIVDPSGGHHVSYSAVDHAAEAAAQRKATSDYADQKIRSESEHRLEDTSVLAGVDEFGDGVTLQILSVFPGFVLQQIQNAIAVRQILPRGTQQTELNWTYLGFEDDTPELREMRLRQSNLVGPAGYVSMEDGCVGGFVQRGIEGAGDGRSVIEMGGDSAESSASRVTEASIRGFWKAYRNAMGY	not soluble
MTTYAALLRGINVGGNKKVPMAELRTLLQGLGYGGVATYLQSGNAVFTSDHGDEQSLAAEVGQAIEKRFGFTVDVLVRDHAYLKAVREACPFPAAELEAKQLHVTYFSGPVDAERFASLDQPAFLPEEFRLGDRALYLYAPDGLGRSKLGETLARPRLLKGIVATSRNWNTVVKLEELTGA	not soluble
